Measurements taken from article PMC3268518 (Molecular Cell, 2011).

Assays:
[1] = biological target: T1, co-purified GST-eIF4G1/eIF4E complex (yeast, UniProt P39935 1-952; P07260 1-213); assay: pull-down
T1 sequence (looked up) 1: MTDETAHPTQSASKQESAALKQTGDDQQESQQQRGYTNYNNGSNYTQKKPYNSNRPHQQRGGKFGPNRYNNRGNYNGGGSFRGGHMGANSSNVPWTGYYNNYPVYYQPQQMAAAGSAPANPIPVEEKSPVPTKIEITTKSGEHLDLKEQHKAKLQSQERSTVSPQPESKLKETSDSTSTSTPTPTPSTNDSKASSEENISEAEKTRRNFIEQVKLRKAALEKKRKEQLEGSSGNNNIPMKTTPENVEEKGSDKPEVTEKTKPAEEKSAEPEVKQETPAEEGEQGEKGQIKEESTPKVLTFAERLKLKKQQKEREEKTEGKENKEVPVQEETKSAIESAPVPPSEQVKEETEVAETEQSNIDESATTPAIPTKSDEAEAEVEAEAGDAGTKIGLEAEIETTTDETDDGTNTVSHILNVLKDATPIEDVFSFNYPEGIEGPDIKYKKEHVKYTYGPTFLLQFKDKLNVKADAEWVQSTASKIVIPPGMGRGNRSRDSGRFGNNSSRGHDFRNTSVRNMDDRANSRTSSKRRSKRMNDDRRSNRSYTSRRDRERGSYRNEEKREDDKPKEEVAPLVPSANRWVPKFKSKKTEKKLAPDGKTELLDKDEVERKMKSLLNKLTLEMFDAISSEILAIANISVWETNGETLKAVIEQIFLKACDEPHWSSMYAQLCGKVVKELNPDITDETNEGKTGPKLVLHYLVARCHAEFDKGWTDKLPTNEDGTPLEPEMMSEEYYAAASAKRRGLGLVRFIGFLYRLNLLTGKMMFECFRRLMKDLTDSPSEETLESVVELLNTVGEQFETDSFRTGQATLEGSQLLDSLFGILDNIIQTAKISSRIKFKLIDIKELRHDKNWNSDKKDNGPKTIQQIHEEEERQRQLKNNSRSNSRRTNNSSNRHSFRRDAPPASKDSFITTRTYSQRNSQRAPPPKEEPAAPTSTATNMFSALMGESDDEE
T1 sequence (looked up) 2: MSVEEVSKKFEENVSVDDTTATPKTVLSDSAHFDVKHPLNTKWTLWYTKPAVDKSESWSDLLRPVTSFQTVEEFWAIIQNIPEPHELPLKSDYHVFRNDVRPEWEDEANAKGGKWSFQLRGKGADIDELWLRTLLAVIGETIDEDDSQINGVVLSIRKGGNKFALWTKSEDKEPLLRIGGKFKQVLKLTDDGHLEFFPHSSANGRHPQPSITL

[2] = biological target: recombinant wild type Ded1 (yeast, UniProt P06634 1-604); assay: pull-down

B1: rded1Δ21-27 (enzyme, yeast, UniProt P06634 1-604, looked up)
chain: MAELSEQVQNLSINDNNENGGKPRSARNNSSNYNNNNGGYNGGRGGGSFFSNNRRGGYGNGGFFGGNNGGSRSNGRSGGRWIDGKHVPAPRNEKAEIAIFGVPEDPNFQSSGINFDNYDDIPVDASGKDVPEPITEFTSPPLDGLLLENIKLARFTKPTPVQKYSVPIVANGRDLMACAQTGSGKTGGFLFPVLSESFKTGPSPQPESQGSFYQRKAYPTAVIMAPTRELATQIFDEAKKFTYRSWVKACVVYGGSPIGNQLREIERGCDLLVATPGRLNDLLERGKISLANVKYLVLDEADRMLDMGFEPQIRHIVEDCDMTPVGERQTLMFSATFPADIQHLARDFLSDYIFLSVGRVGSTSENITQKVLYVENQDKKSALLDLLSASTDGLTLIFVETKRMADQLTDFLIMQNFRATAIHGDRTQSERERALAAFRSGAATLLVATAVAARGLDIPNVTHVINYDLPSDVDDYVHRIGRTGRAGNTGLATAFFNSENSNIVKGLHEILTEANQEVPSFLKDAMMSAPGSRSNSRRGGFGRNNNRDYRKAGGASAGGWGSSRSRDNSFRGGSGWGSDSKSSGWGNSGGSNNSSWW
[1]
  binding result: binds

B2: GST-eIF4G1 fragment eIF4G 883-952 (domain or fragment, yeast, UniProt P39935 883-952, looked up)
chain: SNSRRTNNSSNRHSFRRDAPPASKDSFITTRTYSQRNSQRAPPPKEEPAAPTSTATNMFSALMGESDDEE
[2]
  binding result: binds
